Assay results from patent publication US20250230251A1 (Bristol-Myers Squibb, published 2025).

T1: human IL-18Rβ on cells (human, UniProt O95256 20-599)
T1 sequence: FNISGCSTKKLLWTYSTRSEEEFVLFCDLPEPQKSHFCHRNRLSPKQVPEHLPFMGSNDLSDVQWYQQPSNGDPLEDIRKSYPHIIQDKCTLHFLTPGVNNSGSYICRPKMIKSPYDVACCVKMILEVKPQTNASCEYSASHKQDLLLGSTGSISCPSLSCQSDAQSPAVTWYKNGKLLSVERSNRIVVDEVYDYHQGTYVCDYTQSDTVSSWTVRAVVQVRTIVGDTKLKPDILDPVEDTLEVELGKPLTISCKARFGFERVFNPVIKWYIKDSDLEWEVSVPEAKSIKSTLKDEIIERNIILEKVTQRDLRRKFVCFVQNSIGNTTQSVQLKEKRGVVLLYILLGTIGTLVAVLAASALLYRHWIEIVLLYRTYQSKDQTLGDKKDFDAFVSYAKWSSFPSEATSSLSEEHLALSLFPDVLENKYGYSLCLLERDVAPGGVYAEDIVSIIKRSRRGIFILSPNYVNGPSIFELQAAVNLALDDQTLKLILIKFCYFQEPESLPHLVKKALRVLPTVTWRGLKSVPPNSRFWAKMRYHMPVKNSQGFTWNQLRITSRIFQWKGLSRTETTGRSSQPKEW

T2: cyIL-18Rβ-HisAvi (cynomolgus monkey)
T2 construct: Soluble analyte in SPR; also called cyno IL-18Rβ; cynomolgus monkey IL-18Rβ
T2 chain: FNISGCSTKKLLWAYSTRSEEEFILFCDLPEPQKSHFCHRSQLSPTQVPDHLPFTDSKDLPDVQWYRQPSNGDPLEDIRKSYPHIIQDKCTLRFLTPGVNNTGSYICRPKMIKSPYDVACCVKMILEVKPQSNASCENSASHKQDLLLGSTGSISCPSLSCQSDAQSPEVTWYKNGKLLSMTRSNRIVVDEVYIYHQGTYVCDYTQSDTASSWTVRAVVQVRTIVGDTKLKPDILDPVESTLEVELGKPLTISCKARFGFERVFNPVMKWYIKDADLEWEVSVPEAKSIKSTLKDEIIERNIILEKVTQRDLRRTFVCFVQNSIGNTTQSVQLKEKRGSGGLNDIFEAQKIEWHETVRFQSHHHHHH

T3: IL-18:IL-18Rα complex (human, UniProt Q14116 37-193; Q13478 19-329, limits assumed)
T3 construct: Made by mixing 1.6 uM IL-18 with 100 nM IL-18Ra-Fc-His; also called complexed IL-18: IL-18Rα; not shown: Fc and His tag of the bought fusion protein, not described
T3 sequence (looked up) 1: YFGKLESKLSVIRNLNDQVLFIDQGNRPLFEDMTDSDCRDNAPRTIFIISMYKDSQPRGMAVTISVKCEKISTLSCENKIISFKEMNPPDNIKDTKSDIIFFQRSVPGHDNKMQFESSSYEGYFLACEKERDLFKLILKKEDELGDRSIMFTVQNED
T3 sequence (looked up) 2: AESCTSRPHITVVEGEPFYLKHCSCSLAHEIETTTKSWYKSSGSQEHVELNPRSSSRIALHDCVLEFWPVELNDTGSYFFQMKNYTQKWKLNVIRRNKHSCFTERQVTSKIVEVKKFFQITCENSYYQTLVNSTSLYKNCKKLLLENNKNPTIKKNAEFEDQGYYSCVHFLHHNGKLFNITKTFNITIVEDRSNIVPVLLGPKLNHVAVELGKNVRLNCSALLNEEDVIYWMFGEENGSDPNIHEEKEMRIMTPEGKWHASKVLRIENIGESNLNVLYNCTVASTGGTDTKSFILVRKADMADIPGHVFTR

B1: huIL-18Rβ-HisAvi (receptor)
chain: FNISGCSTKKLLWTYSTRSEEEFVLFCDLPEPQKSHFCHRNRLSPKQVPEHLPFMGSNDLSDVQWYQQPSNGDPLEDIRKSYPHIIQDKCTLHFLTPGVNNSGSYICRPKMIKSPYDVACCVKMILEVKPQTNASCEYSASHKQDLLLGSTGSISCPSLSCQSDAQSPAVTWYKNGKLLSVERSNRIVVDEVYDYHQGTYVCDYTQSDTVSSWTVRAVVQVRTIVGDTKLKPDILDPVEDTLEVELGKPLTISCKARFGFERVFNPVIKWYIKDSDLEWEVSVPEAKSIKSTLKDEIIERNIILEKVTQRDLRRKFVCFVQNSIGNTTQSVQLKEKR
modifications: biotinylated in the Octet blocking assay
notes: Soluble analyte in all SPR runs; captured on streptavidin sensors in the Octet assay; also called human IL-18Rβ; human IL-18Rβ-Avi-His

What was measured:
huIL-18Rβ-HisAvi [1] = target: B1; assay: SPR T200, pH 7.4 and pH 6
human IL-18Rβ on cells = target: T1, human IL-18Rβ on cells; assay: cell-based or functional assay
huIL-18Rβ-HisAvi [2] = target: B1; assay: SPR T200, mAb on anti-hFc, 37C, pH 6
cyIL-18Rβ-HisAvi [3] = target: T2, cyIL-18Rβ-HisAvi; assay: SPR T200, mAb on anti-hFc, 37C, pH 6
huIL-18Rβ-HisAvi [4] = target: B1; assay: SPR T200, mAb on anti-hFc, 37C, pH 7.4
cyIL-18Rβ-HisAvi [5] = target: T2, cyIL-18Rβ-HisAvi; assay: SPR T200, mAb on anti-hFc, 37C, pH 7.4
IL-18:IL-18Rα complex = target: T3, IL-18:IL-18Rα complex; assay: Octet RED384 BLI, complex on sensor-captured biotin-hIL-18Rβ-Avi-His after the 50 nM antibody step

Binder	fold weaker binding than the parent P20 (huIL-18Rβ-HisAvi [1]) [fold]	IC50, LPS+IL-12 dependent IFNg production, human whole blood (human IL-18Rβ on cells) [nM]	Kd (huIL-18Rβ-HisAvi [2]) [nM]	koff (huIL-18Rβ-HisAvi [2]) [s⁻¹]	kon (huIL-18Rβ-HisAvi [2]) [M⁻¹ s⁻¹]	Kd (cyIL-18Rβ-HisAvi [3]) [nM]	koff (cyIL-18Rβ-HisAvi [3]) [s⁻¹]	kon (cyIL-18Rβ-HisAvi [3]) [M⁻¹ s⁻¹]	Kd (huIL-18Rβ-HisAvi [4]) [nM]	koff (huIL-18Rβ-HisAvi [4]) [s⁻¹]	kon (huIL-18Rβ-HisAvi [4]) [M⁻¹ s⁻¹]	Kd (cyIL-18Rβ-HisAvi [5]) [nM]	koff (cyIL-18Rβ-HisAvi [5]) [s⁻¹]	kon (cyIL-18Rβ-HisAvi [5]) [M⁻¹ s⁻¹]	fold weaker off-rate and KD than the parent P20 (huIL-18Rβ-HisAvi [1]) [fold]	binding result (IL-18:IL-18Rα complex)
P20-V4 (antibody, human IgG1, kappa, name in Kabat numbering, built from the chains of the parent P20 with the printed mutations) heavy: QVQLQESGPGLVKPSETLSLTCTVSGGSINNYYWSWIRQPPGKGLEWIGYIFYSGTTNYNPSLKSRVTISVDTSKNQFSLKLSSVTAADTAVYYCARDVGIAARNSYYYVMDVWGQGTTVTVSSASTKGPSVFPLAPSSKSTSGGTAALGCLVKDYFPEPVTVSWNSGALTSGVHTFPAVLQSSGLYSLSSVVTVPSSSLGTQTYICNVNHKPSNTKVDKRVEPKSCDKTHTCPPCPAPEAEGAPSVFLFPPKPKDTLMISRTPEVTCVVVDVSHEDPEVKFNWYVDGVEVHNAKTKPREEQYNSTYRVVSVLTVLHQDWLNGKEYKCKVSNKALPAPIEKTISKAKGQPREPQVYTLPPSREEMTKNQVSLTCLVKGFYPSDIAVEWESNGQPENNYKTTPPVLDSDGSFFLYSKLTVDKSRWQQGNVFSCSVMHEALHNHYTQKSLSLSPG light: not shown	100	37.6	14	0.0037	270000	42	0.002	48000	42	0.0018	44000	88	0.002	23000		
P20-V5 (antibody, human IgG1, kappa, name in Kabat numbering, built from the chains of the parent P20 with the printed mutation) heavy: QVQLQQSGPGLVKPSETLSLTCTVSGGSINNYYWSWIRQPPGKGLEWIGYIFYSGTTNYNPSLKSRVTISVDTSKNQFSLKLSSVTAADTAVYYCARDVGIAARNSYYYVMDVWGQGTTVTVSSASTKGPSVFPLAPSSKSTSGGTAALGCLVKDYFPEPVTVSWNSGALTSGVHTFPAVLQSSGLYSLSSVVTVPSSSLGTQTYICNVNHKPSNTKVDKRVEPKSCDKTHTCPPCPAPEAEGAPSVFLFPPKPKDTLMISRTPEVTCVVVDVSHEDPEVKFNWYVDGVEVHNAKTKPREEQYNSTYRVVSVLTVLHQDWLNGKEYKCKVSNKALPAPIEKTISKAKGQPREPQVYTLPPSREEMTKNQVSLTCLVKGFYPSDIAVEWESNGQPENNYKTTPPVLDSDGSFFLYSKLTVDKSRWQQGNVFSCSVMHEALHNHYTQKSLSLSPG light: not shown		21.2	1.8	0.00059	340000	5.5	0.00097	180000	19	0.0011	56000	40	0.0013	34000	10	
B1																binds
